The target in assay [1] is T1, soluble human CD3 epsilon chain (human, UniProt P07766 23-126).
T1 construct: also called CD3ε
The assay can be described thus: SPR.

Another assay deals with T2, human GPC3 (human, UniProt P51654 25-563).
T2 construct: range 25-563; soluble analyte; also called soluble human GPC3; glypican 3
The assay can be described thus: SPR.

Where a chain is given by its changes, count along the chain named. Numbers in names are those of the source. Where “and” joins values, the source holds several entries; their conditions need not be identical. Equal values may be shown once.

T1 sequence (P07766 23-126 limits assumed): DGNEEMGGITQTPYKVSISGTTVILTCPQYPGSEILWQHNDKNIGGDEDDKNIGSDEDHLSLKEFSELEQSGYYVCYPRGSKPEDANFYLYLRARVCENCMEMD
T2 sequence (P51654 25-563 limits assumed): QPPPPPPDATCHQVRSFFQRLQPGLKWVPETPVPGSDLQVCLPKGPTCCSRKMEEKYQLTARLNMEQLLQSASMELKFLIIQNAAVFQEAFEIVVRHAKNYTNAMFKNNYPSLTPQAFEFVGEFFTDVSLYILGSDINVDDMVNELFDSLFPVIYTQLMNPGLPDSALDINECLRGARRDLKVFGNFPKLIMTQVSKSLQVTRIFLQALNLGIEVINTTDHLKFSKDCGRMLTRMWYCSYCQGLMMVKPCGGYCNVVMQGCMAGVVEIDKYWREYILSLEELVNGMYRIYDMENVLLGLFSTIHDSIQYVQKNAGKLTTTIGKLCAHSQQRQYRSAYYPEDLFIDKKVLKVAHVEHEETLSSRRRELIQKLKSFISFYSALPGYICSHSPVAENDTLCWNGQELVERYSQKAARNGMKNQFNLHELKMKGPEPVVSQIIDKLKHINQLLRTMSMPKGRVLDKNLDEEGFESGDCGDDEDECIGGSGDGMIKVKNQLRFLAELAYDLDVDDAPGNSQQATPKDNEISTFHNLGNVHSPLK

B1: GPC3_ERY22_CE115 (rCE115H-E22Hh/rCE115L-k0/GL4-E22Hk/H0000-E22L) (bispecific antibody, human IgG1, kappa, L234A L235A, N297A)
heavy: EVQLVETGGSLVQPGKSLKLTCATSGFTFSNAWMHWVRQSPEKQLEWVAQIKAKSNNYATYYAESVKGRFTISRDDSKSNIYLQMNSLKEEDTAVYYCRYVHYGAYYGVDAWGQGTSVTVSSASTKGPSVFPLAPSSKSTSGGTAALGCLVKDYFPEPVTVSWNSGALTSGVHTFPAVLQSSGLYSLSSVVTVPSSSLGTQTYICNVNHKPSNTKVDKKVEPKSCDKTHTCPPCPAPEAAGGPSVFLFPPKPKDTLMISRTPEVTCVVVDVSHEDPEVKFNWYVDGVEVHNAKTKPREEQYASTYRVVSVLTVLHQDWLNGKEYKCKVSNKALPAPIEKTISKAKGQPREPQVYTLPPSRCELTKNQVSLSCAVKGFYPSDIAVEWESNGQPENNYKTTPPVLDSDGSFFLVSKLTVDKSRWQQGNVFSCSVMHEALHNHYTQKSLSLSPDYKDDDDK
light: DVVMTQTPVSMSVSLGGQVSISCRSSQSLVHNNGNTYVSWYIQKPSQSPQLLIYKVSNRFSGISDRFSGSGSGTDFTLKISRVEPDDLGVYYCGQGTQDPYTFGAGTKLELKRTVAAPSVFIFPPSDEQLKSGTASVVCLLNNFYPREAKVQWKVDNALQSGNSQESVTEQDSKDSTYSLSSTLTLSKADYEKHKVYACEVTHQGLSSPVTKSFNRGEC
chain 1: DIVMTQSPLSLPVTPGEPASISCRSSQSLVHSNRNTYLHWYQQKPGQAPRLLIYKVSNRFSGVPDRFSGSGSGTDFTLKISRVEAEDVGVYYCSQNTHVPPTFGQGTKLEIKSSASTKGPSVFPLAPSSKSTSGGTAALGCLVKDYFPEPVTVSWNSGALTSGVHTFPAVLQSSGLYSLSSVVTVPSSSLGTQTYICNVNHKPSNTKVDKKVEPKSCDKTHTCPPCPAPEAAGGPSVFLFPPKPKDTLMISRTPEVTCVVVDVSHEDPEVKFNWYVDGVEVHNAKTKPREEQYASTYRVVSVLTVLHQDWLNGKEYKCKVSNKALPAPIEKTISKAKGQPREPQVCTLPPSRDELTKNQVSLWCLVKGFYPSDIAVEWESNGQPENNYKTTPPVLDSDGSFFLYSKLTVDKSRWQQGNVFSCSVMHEALHNHYTQKSLSLSPHHHHHHHH
chain 2: QVQLVQSGAEVKKPGASVKVSCKASGYTFTDYEMHWIRQPPGQGLEWIGAIDPKTGDTAYSQKFKGRVTLTADKSTSTAYMELSSLTSEDTAVYYCTRFYSYTYWGQGTLVTVSSASVAAPSVFIFPPSDEQLKSGTASVVCLLNNFYPREAKVQWKVDNALQSGNSQESVTEQDSKDSTYSLSSTLTLSKADYEKHKVYACEVTHQGLSSPVTKSFNRGEC
notes: ERY22 format
Take B1: binding in assay [1] was put at a Kd of 93.7 nM.

B2: H0610-G1dh/none-Hi-Kn010G3/L0015-k0 (antibody, V domains shown)
VH: QVQLVQSGAEVKKPGASVKVSCKASGYTFTDYEMHWIRQPPGQGLEWIGAIDGKTPDTAYSQKFKGRVTLTADKSTSTAYMELSSLTSEDTAVYYCTRFYSYTYWGQGTLVTVSS
VL: DIVMTQSPLSLPVTPGEPASISCRSSQSPVHSNRNTYLHWYQQKPGQAPRLLIYKVSNRFSGVPDRFSGSGSGTDFTLKISRVEAEDVGVYYCGQGTQVPYTFGQGTKLEIK
notes: one-arm
Regarding B2, binding with human GPC3 was characterised by a dissociation constant (Kd) of 1.31 nM.

B3: TR01H040-E22Hh/none-Hi-Kn010G3/TR01L007-k0 (antibody, V domains shown)
VH: QVQLVESGGGLVQPGRSLRLSCAASGFTFSNAWMHWVRQAPGKGLEWVAQIKDKSQNYATYYAESVKGRFTISRADSKNSIYLQMNSLKTEDTAVYYCRYVHYSASYGVDAWGQGTTVTVSS
VL: B2 VL with R24Q, S25A, Q27E, P29L, Q42L, A48S, R50Q
notes: one-arm
B3 came in with a Kd in assay [1] of 68.2 nM.

B4: TR01H067-E22Hh/none-Hi-Kn010G3/TR01L019-k0 (antibody, V domains shown)
VH: B3 VH with A75D, I81L, S104A
VL: B2 VL with R24Q, S25A, Q27E, Q42L, A48S, R50Q, G94Y
notes: one-arm
In turn, B4 yielded a Kd in assay [1] of 12.1 nM.

B5: TR01H077-E22Hh/none-Hi-Kn010G3/L0200-k0 (antibody, V domains shown)
VH: QVQLVESGGGLVQPGRSLRLSCAASGFTFSNAWMHWVRQAPGKGLEWVAQIKDKSNNYATYYAESVKGRFTISRADSKNSIYLQMNSLKTEDTAVYYCRYVHYAAAEMVRDDIWGQGTTVTVSS
VL: B2 VL with S25P
notes: one-arm
As for B5, in assay [1], binding was put at a Kd of 6.12 nM.

B6: TR01H040-E22Hh/none-Hi-Kn010G3/TR01L019-k0 (antibody, V domains shown)
VH: B3 VH
VL: B2 VL with R24Q, S25A, Q27E, Q42L, A48S, R50Q, G94Y
notes: one-arm
As to B6, the equilibrium dissociation constant (Kd) in assay [1] came to 3.2 nM.

B7: TR01H082-E22Hh/none-Hi-Kn010G3/TR01L020-k0 (antibody, V domains shown)
VH: B3 VH with A75D, I81L, S104A, S106G
VL: B2 VL with R24Q, S25A, Q27E, L38I, H39Q, Q42L, A48S, R50Q, G94Y
notes: one-arm
In the case of B7, in assay [1], the dissociation constant Kd worked out at 106 nM.

B8: GCH054-G1dh/none-Hi-Kn010G3/L0246-k0 (antibody, V domains shown)
VH: B2 VH with K19T, Q43E, K54E, Q62E
VL: B2 VL with L38I, H39Q, G94S
notes: one-arm
In the case of B8, the dissociation constant Kd with human GPC3 came to 0.0315 nM.

B9: TR01H015-E22Hh/none-Hi-Kn010G3/TR01L005-k0 (antibody, human IgG1, L234A L235A, N297A)
heavy: QVQLVESGGGLVQPGRSLRLSCAASGFTFSNAWMHWVRQAPGKGLEWVAQIKGKSNNYATYYAESVKGRFTISRADSKNSIYLQMNSLKTEDTAVYYCRYVHYSASYGVDIWGQGTTVTVSSASTKGPSVFPLAPSSKSTSGGTAALGCLVKDYFPEPVTVSWNSGALTSGVHTFPAVLQSSGLYSLSSVVTVPSSSLGTQTYICNVNHKPSNTKVDKKVEPKSCDKTHTCPPCPAPEAAGGPSVFLFPPKPKDTLMISRTPEVTCVVVDVSHEDPEVKFNWYVDGVEVHNAKTKPREEQYASTYRVVSVLTVLHQDWLNGKEYKCKVSNKALPAPIEKTISKAKGQPREPQVYTLPPSRCELTKNQVSLSCAVKGFYPSDIAVEWESNGQPENNYKTTPPVLDSDGSFFLVSKLTVDKSRWQQGNVFSCSVMHEALHNHYTQKSLSLSPDYKDDDDK
VL: B2 VL with P29L, Q42L, A48S, R50Q, L109V, K112E
notes: one-arm
For B9, in assay [1], the dissociation constant Kd came to 65.3 nM.

B10: GCH054-G1dh/none-Hi-Kn010G3/L0200-k0 (antibody, V domains shown)
VH: B2 VH with K19T, Q43E, K54E, Q62E
VL: B2 VL with S25P
notes: one-arm
For the molecule B10, in the assay with human GPC3, the equilibrium dissociation constant (Kd) was determined as 1.18 nM.

B11: GCH054-G1dh/none-Hi-Kn010G3/TR01L016-k0 (antibody, V domains shown)
VH: B2 VH with K19T, Q43E, K54E, Q62E
VL: B2 VL with Q42L, A48S, R50Q, G94Y
notes: one-arm
For B11, the affinity in the assay with human GPC3, expressed as Kd, was 0.763 nM.

B12: GCH054-G1dh/none-Hi-Kn010G3/L0262-k0 (antibody, V domains shown)
VH: B2 VH with K19T, Q43E, K54E, Q62E
VL: B2 VL with S28P, G94A
notes: one-arm
Regarding B12, the dissociation constant (Kd) with human GPC3 came out at 0.000525 nM.

B13: TR01H015-E22Hh/none-Hi-Kn010G3/TR01L006-k0 (antibody, human IgG1, L234A L235A, N297A, V domains shown)
VH: B3 VH with D53G, Q56N, A111I
VL: B2 VL with R24Q, S25A, Q27E, P29L, Q42L, A48S, R50Q, L109V, K112E
notes: one-arm
In assay [1], B13 returned a Kd of 93 nM.

B14: GCH054-G1dh/none-Hi-Kn010G3/TR01L018-k0 (antibody, V domains shown)
VH: B2 VH with K19T, Q43E, K54E, Q62E
VL: B2 VL with R24Q, S25A, Q27E, Q42L, A48S, R50Q
notes: one-arm
B14 came in with an equilibrium dissociation constant (Kd) in the assay with human GPC3 of 2.59 nM.

B15: GCH054-G1dh/none-Hi-Kn010G3/TR01L015-k0 (antibody, V domains shown)
VH: B2 VH with K19T, Q43E, K54E, Q62E
VL: B2 VL with Q42L, A48S, R50Q
notes: one-arm
The molecule B15 yielded a Kd in the assay with human GPC3 of 2.45 nM.

B16: GCH054-G1dh/none-Hi-Kn010G3/L0215-k0 (antibody, V domains shown)
VH: B2 VH with K19T, Q43E, K54E, Q62E
VL: B2 VL with S28P, L38I
notes: one-arm
Molecule B16 yielded a Kd with human GPC3 of 1.62 nM.

B17: GCH054-G1dh/none-Hi-Kn010G3/L0249-k0 (antibody, V domains shown)
VH: B2 VH with K19T, Q43E, K54E, Q62E
VL: B2 VL with S25P, L38I, H39Q, G94S
notes: one-arm
The molecule B17 had a Kd in the assay with human GPC3 of 0.00361 nM.

B18: rCE115H-E22Hh/none-Hi-Kn010G3/L0000-k0 (antibody, human IgG1, kappa, L234A L235A, N297A, V domains shown)
VH: EVQLVETGGSLVQPGKSLKLTCATSGFTFSNAWMHWVRQSPEKQLEWVAQIKAKSNNYATYYAESVKGRFTISRDDSKSNIYLQMNSLKEEDTAVYYCRYVHYGAYYGVDAWGQGTSVTVSS
VL: DIVMTQSPLSLPVTPGEPASISCRSSQSLVHSNRNTYLHWYQQKPGQAPRLLIYKVSNRFSGVPDRFSGSGSGTDFTLKISRVEAEDVGVYYCGQGTQVPYTFGQGTKLEIKR
notes: one-arm
In the case of B18, the Kd in assay [1] came to 80 nM.

B19: TR01H084-E2702GsKsc/none-Hi-E2704sE/L0011-k0 (antibody, human IgG4 S228P, kappa, N297A, V domains shown)
VH: B3 VH with L11V, R16G, S104A, S106G, A111I
VL: B18 VL with S28P
notes: one-arm
Turning to B19, in assay [1], binding was characterised by a dissociation constant (Kd) of 4.14 nM.

B20: rCE115H-E22Hh/none-Hi-Kn010G3/L0000vk1-k0 (antibody, human IgG1, L234A L235A, N297A, V domains shown)
VH: B18 VH
VL: DIQMTQSPSSLSASVGDRVTITCRSSQSLVHSNRNTYLHWYQQKPGKAPKLLIYKVSNRFSGVPSRFSGSGSGTDFTFTISSLQPEDIATYYCGQGTQVPYTFGQGTKVEIK
notes: one-arm
Regarding B20, the Kd in assay [1] was 85.2 nM.

B21: rCE115H-E22Hh/none-Hi-Kn010G3/rCE115L-k0 (antibody, human IgG1, kappa, L234A L235A, N297A, V domains shown)
VH: B18 VH
VL: DVVMTQTPVSMSVSLGGQVSISCRSSQSLVHNNGNTYVSWYIQKPSQSPQLLIYKVSNRFSGISDRFSGSGSGTDFTLKISRVEPDDLGVYYCGQGTQDPYTFGAGTKLELKR
notes: one-arm; also called rCE115H-E22Hh//-Hi-Kn010G3/rCE115L-k0
Take B21: the Kd in assay [1] was 124 nM and 138 nM.

B22: TR01H082-E2702GsKsc/none-Hi-E2704sE/L0011-k0 (antibody, human IgG4 S228P, kappa, N297A, V domains shown)
VH: B3 VH with A75D, I81L, S104A, S106G
VL: B18 VL with S28P
notes: one-arm
Regarding B22, the Kd in assay [1] stood at 10.1 nM.

B23: TR01H109-E2702GsKsc/none-Hi-E2704sE/L0011-k0 (antibody, human IgG4 S228P, kappa, N297A, V domains shown)
VH: B3 VH with Y62V, A75D, I81L, S104A, S106G
VL: B18 VL with S28P
notes: one-arm
Consider B23, for which, in assay [1], the affinity, expressed as Kd, was 16.4 nM.

B24: TR01H113-E2702GsKsc/none-Hi-E2704sE/L0011-k0 (antibody, human IgG4 S228P, kappa, N297A, V domains shown)
VH: B3 VH with L11V, R16G, Y62V, S104A, S106G, A111I
VL: B18 VL with S28P
notes: one-arm
As for B24, the Kd in assay [1] is 5.14 nM.

The term Kd denotes the constant that tells how readily two partners part at equilibrium.
